Test results published in US20250296982A1.

Assays:
[1] = target: TRIM21-GST (Antibodies Online catalogue #ABIN1323621) (UniProt P19474); test: ELISA: antibody coated at 25 µg/mL, TRIM21-GST titrated, EC50 = midpoint of the 4PL fit
[2] = target: recombinant human FcRn (human α-FcRn with a 6× histidine tag on the C-terminus, co-expressed with human β2M) (human) (UniProt P55899); test: biolayer interferometry (Octet): antibody on anti-CH1 biosensor, recombinant FcRn in solution, pH 6.0; fold change against IgG with WT Fc
FcγRIIIa [3] = target: FcγRIIIa (UniProt P08637); test: plate binding assay, O.D. 650 against antibody concentration (format not described in Example 4)
[4] = target: TRIM21-GST (Antibodies Online catalogue #ABIN1323621) (UniProt P19474); test: ELISA, antibody coated, TRIM21-GST titrated; reference WT
[5] = target: recombinant human FcRn (human α-FcRn with a 6× histidine tag on the C-terminus, co-expressed with human β2M) (human) (UniProt P55899); test: biolayer interferometry (Octet): antibody on anti-CH1 biosensor, recombinant FcRn in solution, pH 6.0; reference of the fold changes
[6] = target: C1q of the low toxicity guinea pig complement used in the CDC assay (Cedarlane Laboratories Product #CL4051) (guinea pig)
FcγRIIIa [7] = target: FcγRIIIa (UniProt P08637)
FcγRIIIa [8] = target: FcγRIIIa (UniProt P08637); test: ELISA: FcγRIIIA coated, antibody titrated
[9] = target: full-length, membrane-bound FcRn heterodimer (FcRn alpha and β2m) on transiently transfected Expi293 cells (UniProt P55899); test: cell-based competition at pH 6.0, flow cytometry: FcRn-expressing cells, dilutions of IgG against a fixed concentration of labelled Fc competitor Fc-A488
[10] = target: recombinant human FcRn (human α-FcRn with a 6× histidine tag on the C-terminus, co-expressed with human β2M) (human) (UniProt P55899); test: biolayer interferometry (Octet): antibody on anti-CH1 tip, FcRn in solution, pH 6.0

EC50 [1] | kd (fold decrease*) [2] | koff (fold decrease*) [2] | kon (fold increase*) [2] | TRIM21 binding EC50, fold of WT EC50 [4] | EC50 (ADCC reporter bioassay, CD20+ WIL2-S target cells) (FcγRIIIa [7]) | Substance | EC50 (CDC, CD20+ Raji cells with guinea pig complement) [6] | other results
14500 ng/mL | 9.2 fold | 3.6 fold | 2.6 fold | – | – | LS (Xencor) (antibody) | – | –
– | – | – | – | – | – | LS (antibody) | – | EC50 (read off the curve) (FcγRIIIa [3]): 60 nM
7730 ng/mL | 5.9 fold | 2.6 fold | 2.3 fold | < 1.5 fold | – | Motavizumab with Fc variant FcMut045 (T256D_T307R_Q311V) (antibody) | – | –
7410 ng/mL | 11 fold | 3.2 fold | 3.2 fold | < 1.5 fold | – | Motavizumab with Fc variant FcMut183 (T256D_Q311V_A378V) (antibody) | – | –
12300 ng/mL | 9.1 fold | 3 fold | 2.9 fold | < 1.5 fold | – | Motavizumab with Fc variant FcMut197 (H285N_T307Q_N315D) (antibody) | – | –
10500 ng/mL | 13.2 fold | 3.3 fold | 3.8 fold | < 1.5 fold | – | Motavizumab with Fc variant FcMut213 (H285D_T307Q_A378V) (antibody) | – | –
7800 ng/mL | 12.4 fold | 3.7 fold | 3.4 fold | < 1.5 fold | – | Motavizumab with Fc variant FcMut215 (T307Q_Q311V_A378V) (antibody) | – | –
10400 ng/mL | 12.4 fold | 4 fold | 3.2 fold | < 1.5 fold | – | Motavizumab with Fc variant FcMut228 (T256D_N286D_T307R_Q311V_A378V) (antibody) | – | –
8500 ng/mL | – | – | – | – | – | Motavizumab with wild-type Fc (antibody) | – | kd (fold decrease*) [5]: 1 fold; koff (fold decrease*) [5]: 1 fold; kon (fold increase*) [5]: 1 fold
– | – | – | – | – | 3.92 ng/mL | Rituximab with Fc variant FcMut183 (T256D_Q311V_A378V) (antibody) | 0.103 ng/mL | –
– | – | – | – | – | 8.3 ng/mL | Rituximab with Fc variant FcMut197 (H285N_T307Q_N315D) (antibody) | 2.54 ng/mL | –
– | – | – | – | – | 4.01 ng/mL | Rituximab with Fc variant FcMut213 (H285D_T307Q_A378V) (antibody) | 0.267 ng/mL | –
– | – | – | – | – | 2.73 ng/mL | Rituximab with Fc variant FcMut215 (T307Q_Q311V_A378V) (antibody) | 0.141 ng/mL | –
– | – | – | – | – | 2.66 ng/mL | Rituximab with Fc variant FcMut228 (T256D_N286D_T307R_Q311V_A378V) (antibody) | 0.22 ng/mL | –
– | – | – | – | – | 3.07 ng/mL | Rituximab with Fc variant FcMut229 (T256D_H285D_T307R_Q311V_A378V) (antibody) | 0.14 ng/mL | –
– | – | – | – | – | 6.14 ng/mL | WT (antibody) | 0.715 ng/mL | EC50 (read off the curve) (FcγRIIIa [8]): 3000 ng/mL; EC50 (read off the curve) (FcγRIIIa [3]): 40 nM; IC50 (read off the curve) [9]: 300 nM; Kd [10]: 862 nM
10100 ng/mL | 8.5 fold | 3.6 fold | 2.3 fold | – | – | YTE (Medimmune) (antibody) | – | –
– | – | – | – | – | – | antibody molecule with Fc variant FcMut008 (T256D_T307R) | – | IC50 (read off the curve) [9]: 100 nM; Kd [10]: 383 nM
– | – | – | – | – | – | antibody molecule with Fc variant FcMut015 (D376Q_M428L) | – | IC50 (read off the curve) [9]: 90 nM; Kd [10]: 287 nM
